Measured values reported in patent US20230391862A1, “METHOD OF S[…] RESPONSE TO VECTOR-DELIVERED T[…]” (Scout Bio, Inc., priority 2020, published 2023).
Where a chain is given by its changes, count along the chain named.

B1: feNGF mAb: recombinant purified felinized anti-NGF monoclonal antibody, clone JCV4, SEQ ID NOs: 1 and 2 (antibody, V domains shown)
VH: QVQLMESGADLVQPSESLRLTCVASGLSLTNNNVNWVRQAPGKGLEWMGGVWAGGATDYNSALKSRLTITRDTSKNTVFLQMHSLQSEDTATYYCARDGGYSSSTLYAMDAWGQGTTVTVSA
VL: DIEMTQSPLSLSATPGETVSISCRASEDIYNALAWYLQKPGRSPRLLIYNTDTLHTGVPDRFSGSGSGTDFTLKISRVQTEDVGVYFCQHYFHYPRTFGQGTKLELK
modifications: felinized anti-NGF antibody VH Sequence; felinized anti-NGF antibody VL Sequence
B2: fNGFV5_1 mAb: purified felinized anti-NGF monoclonal antibody, clone V5_1, SEQ ID NOs: 2 and 5 (antibody, V domains shown)
VL: B1 VL
VH: B1 VH with M5V, A9G, S15G, E16G, L27F, L63V
modifications: felinized anti-NGF antibody VL Sequence; felinized anti-NGF antibody (V5_1) VH Sequence

Experiments:
[1] = Serum level of feNGF mAb in cats by NGF-binding ELISA; type: in vivo, cat
Protocol: The concentration of FeNGF mAb in cat serum was determined using an NGF-binding ELISA. ELISA plates were coated with 0.1 μg/ml muNGF and blocked with PBS/0.05% Tween 20/1% BSA. muNGF coated wells were incubated for 1 h at room temperature with serum diluted in PBS/0.05% Tween 20/1% BSA in the amount of 100 μl/well. FeNGF antibody concentrations ranging from 1.56 ng/ml to 100 ng/ml were used to establish a binding curve. Well plates were washed following incubation and were then incubated with a 1/10,000 dilution of goat anti-feline IgG-HRP in PBS/0.05% Tween 20/1% BSA. Plates were washed with PBS/0.05% Tween 20 and developed by the addition of 3,3′,5,5′-tetramethylbenzidine (TMB) substrate. Development was stopped by the addition of 2M H2SO4 and the absorbance read at 450 nm and background was subtracted from the resulting reading.
The concentration of feline anti-NGF mAb in cat serum was determined using an NGF-binding ELISA. […] Development was stopped by the addition of 2M H2SO4 and absorbance read at 450 nm and background was subtracted.
The concentration of feline anti-NGF mAbs in cat serum was determined using an NGF-binding ELISA. […] Development was stopped by the addition of 2M H2SO4 and absorbance read at 450 nm and background was subtracted.

[2] = system: anti-transgene product antibody (ATPA) response, anti-(anti-feNGF mAb) antibodies; experiment: Bridging immunoassay for anti-transgene product antibodies (ATPA) in cat serum after IM AAV; conditions: cats; for ATPA up to 98 days post AAV administration: mAb 2 mg/kg SC 14 days before AAV IM 2.5×10^11 gc/kg
Protocol: A bridging Immunoassay with acid dissociation was used to evaluate the presence of anti-(anti-feNGF mAb) antibodies in the cat serum. Samples were pre-treated with acid to disrupt any existing ATPA-feNGF mAb complexes before assessment in the bridging assay. Samples were diluted to 2.5% in 300 mM acetic acid to enable ATPA-feNGF mAb complex dissociation before analysis. Acidified samples were incubated for 40 min with shaking at ambient temperature. 25 μl of the acidified samples were transferred to wells of a 96 well plate containing 90 μL of master-mix reagent (0.125 μg/mL of biotinylated feNGF mAb and 0.125 μg/mL of ruthenylated feNGF mAb with 1% Meso Scale Discovery (MSD) Blocker A in PBS-T) and 11 μL 1.2M Tris solution (pH 9.5). Acidified samples plus master-mix reagents were incubated at ambient temperature in the dark for 60 min with shaking. Simultaneously, Streptavidin-coated MSD plates were blocked for 60 min at ambient temperature with 200 μL/well of PBS-T buffer containing 3% (MSD) Blocker A. The Streptavidin-coated MSD plates were then washed and 25 μl of the acidified sample plus master-mix reagent were transferred to the plates which were then incubated at ambient temperature in the dark for 60-90 min with shaking. The MSD plates were washed and then 150 μL of 2×MSD Read T-Buffer was added per well before the plates were read on an MSD MESO QuickPlex SQ 120 instrument. The resulting response was recorded as Relative Light Units (RLU).
A bridging immunoassay with acid dissociation was used to evaluate the presence of anti-(anti-feNGF mAb) antibodies in the cat serum at timepoints when the circulating levels of drug were at the lowest (pre-dose). Samples were pre-treated with acid to disrupt any existing ADA-feNGF mAb complexes before assessment in the bridging assay. Briefly, samples were diluted to 2.5% in 300 mM acetic acid to enable ADA-drug complex dissociation before analysis. Acidified samples were incubated for 40 min with shaking at ambient temperature. 25 μl of the acidified samples were transferred to wells of a 96 well plate containing 90 μL of master-mix reagent (0.125 μg/mL of biotinylated feNGF mAb and 0.125 μg/mL of ruthenylated feNGF mAb with 1% Meso Scale Discovery (MSD) Blocker A in PBS-T) and 11 μL 1.2M Tris solution (pH 9.5). Acidified samples plus master-mix reagents were incubated at ambient temperature in the dark for 60 min with shaking. Simultaneously, Streptavidin-coated MSD plates were blocked for 60 min at ambient temperature with 200 μL/well of PBS-T buffer containing 3% (MSD) Blocker A.
The Streptavidin-coated MSD plates were then washed and 25 ul of the acidified sample plus master-mix reagent were transferred to the plates which were then incubated at ambient temperature in the dark for 60-90 min with shaking. The MSD plates were washed, 150 μL of 2×MSD Read T-Buffer was added per well before the plates were read on an MSD MESO QuickPlex SQ 120 instrument. The resulting response was recorded as Relative Light Units (RLU).
A bridging immunoassay with acid dissociation was used to evaluate the presence of anti-(anti-feNGF mAb) antibodies in the cat serum at timepoints when the circulating levels of drug were at the lowest (pre-dose). Samples were pre-treated with acid to disrupt any existing ADA-feNGF mAb complexes before assessment in the bridging assay. Briefly, samples were diluted to 2.5% in 300 mM acetic acid to enable ADA-drug complex dissociation before analysis. Acidified samples were incubated for 40 min with shaking at ambient temperature.

Row | Molecule | expression of feNGF mAb in the serum ([1]; mAb 2 mg/kg SC day −14, then AAV.CB7.feNGF IM 2.5×10^11 gc/kg day 0 (FIG. 4B)) | ATPA up to 98 days post AAV administration ([2]; Example 7) | ATPA response after pre-treatment ([2]; pre-treatment, then AAV.CB7.feNGF IM 2.5×10^11 gc/kg at day 0 (FIG. 4E-4H)) | detectable serum antibody ([1]; Example 8, high dose (1×10^13 gc/cat) cohort, the animal with ATPA response) | ATPA signal following the recombinant mAb administration ([2]; Example 7, V5_1 pre-treatment group, did not persist, did not affect transgene expression (FIG. 10F)) | treatment induced ATPA response ([2]; Example 8, mAb 2 mg/kg SC day −14, then high dose of AAV (1×10^13 gc/cat)) | treatment-emergent immunogenicity up to 56 days post AAV administration ([2]; Example 8, mAb 2 mg/kg SC day −14, then medium dose of AAV (1×10^12 gc/cat))
1 | B1 | strong, sustained expression of feNGF mAb was observed | no evidence of ATPA was observed | no ATPA response was observed | – | – | – | –
2 | B2 | – | no evidence of ATPA was observed | – | sudden loss in detectable serum antibody | low, transient ATPA signal was observed in one animal | A single treatment induced ATPA response was observed | no evidence of treatment-emergent immunogenicity was observed
